Measured values taken from FireProtDB (doi:10.1016/s0014-5793(98)01666-4).
Several values for one entry are separate records, joined by “and”; a condition that tells them apart may be missing. Identical values can stand only once.

Conditions: Rattus norvegicus, pH 7.4, Thermal, DSC, EDTA 10 mM, NaCl 0.20 M, transition: 2, reversible: yes, whole UniProt chain shown

B1: Parvalbumin alpha wild type, P02625 (protein)
chain: MSMTDLLSAEDIKKAIGAFTAADSFDHKKFFQMVGLKKKSADDVKKVFHILDKDKSGFIEEDELGSILKGFSSDARDLSAKETKTLMAAGDKDGDGKIGVEEFSTLVAES
unfolding enthalpy (calorimetric) (25 °C): 70 kcal/mol and 75 kcal/mol | unfolding enthalpy (van 't Hoff) (25 °C): 71 kcal/mol and 74 kcal/mol | unfolding free energy (25 °C): 3.5 kcal/mol and 4.7 kcal/mol | Tm: 53.6 °C | unfolding enthalpy (calorimetric): 75 kcal/mol | unfolding enthalpy (van 't Hoff): 74 kcal/mol
